Data as given in patent US10344330B2, “Glatiramer acetate response biomarker mRNA potency assay” (Mylan Inc., priority 2013, dated 2019).

B1: MBP: myelin basic protein, a negative control (protein, UniProt P02686 1-304, looked up)
Myelin basic protein: MGNHAGKRELNAEKASTNSETNRGESEKKRNLGELSRTTSEDNEVFGEADANQNNGTSSQDTAVTDSKRTADPKNAWQDAHPADPGSRPHLIRLFSRDAPGREDNTFKDRPSESDELQTIQEDSAATSESLDVMASQKRPSQRHGSKYLATASTMDHARHGFLPRHRDTGILDSIGRFFGGDRGAPKRGSGKDSHHPARTAHYGSLPQKSHGRTQDENPVVHFFKNIVTPRTPPPSQGKGRGLSLSRFSWGAEGQRPGFGYGGRASDYKSAHKGFKGVDAQGTLSKIFKLGGRDSRSGSPMARR

Key:
[1] = test system: KC (CXCL1) secreted by LN cells; assay: KC (CXCL1) secretion by GA-stimulated LN cells, MSD 9-plex ELISA (Example II); format: cell-based, mouse; conditions: 21 hr
Protocol: (§1) Animals at 8 weeks of age were immunized by injection into four footpads using a 1 mL syringe with a 27-G, 1⁄2-inch needle. […] Ten days post-immunization, immunized animals were sacrificed via cervical dislocation. […] The LN cells were isolated by pressing the LN with the plunger end of a sterile syringe. […] Trypan blue exclusion method was used to determine the cell density of viable cells in the suspension. […] Cat. […] LN cells were plated into a 24-well tissue culture plate for drug stimulation. […] Cell debris was removed by centrifugation at ca. 200×g for 10 minutes at 4° C. Cytokines secreted by treated cells were determined on the day of collection by ELISA using mouse TH 1/TH 2 9-Plex Tissue Culture Kit (Meso Scale Discovery; Cat No. […]-2, Lot #: K0032839) which detects Th1 cytokines (IFN-γ, IL-2, IL-12, IL-1β, TNF-α, CXCL1) and Th2 cytokines (IL-4, IL-5 and IL-10). For IFN-γ, culture media also were assayed at 45 hours using mouse IFN-γ Tissue Culture Kit (Meso Scale Discovery; Cat No. […] For the positive control, 0.5 mL of LN cells (5×10^6 cells/well) were treated with 0.5 mL of ConA (5 μg/mL). For the negative control, 0.5 mL of LN cells (5×10^6 cells/well) were treated with 0.5 mL of MBP (20 μg/mL). The LN cells with mock stimulation (enriched DCCM1 medium) were used to monitor the background level of a cytokine. For the cytokine assays, calibration standards or samples were incubated in the MULTI-SPOT or the SINGLE-SPOT plate and each cytokine bound to its corresponding capture antibody. All test samples were run in duplicate. The amount of each cytokine on its distinct spot was quantified using a cytokine-specific detection antibody labeled with MSD SULFO-TAGTM reagent. Electrochemiluminescent signals from immobilized SULFO-TAGTM-labeled complexes on each spot from each well were captured by the MSD SECTOR Imager 6000, which produces a signal directly proportional to the amount of captured cytokine in a test sample. The levels of cytokines in test samples were derived by interpolation from calibration curves with calibration standards of known concentrations using reagents provided with the MSD kits. Kits were used according to the manufacturer's protocols. […] Data are expressed as a response ratio of cytokine concentration in treated cell medium to control DCCM1 medium.

[2] = test system: mouse TNF-α mRNA in primary LN cells; assay: Validation: mouse TNF-α mRNA by real-time PCR in LN cells of GA-immunized SJL/J mice (Example IV); format: cell-based; conditions: for TNF-α mRNA Fold Change: normalized to GAPDH
Protocol: Three experiments were conducted using one batch of GA (Mylan GMA). The primary LN cells were stimulated by incubation with 6 concentrations (0.3 to 20 μg/mL) of the GA for 6 hours at 37° C. Total RNA was isolated from LN cells stimulated with GA or controls. cDNA was synthesized from the RNA and the mRNA levels of seven mouse cytokines, IL-2, IL-4, IL-5, IL-10, IL-13, interferon (IFN)-γ and tumor necrosis factor (TNF)-α, were quantitatively measured by a real-time PCR method.
Female SJL/J mice at 8-9 weeks of age were immunized by injection into four footpads using a 1 mL syringe with a 27-G, ½-inch needle. Each mouse received a total injection volume of 0.1 mL of GMA emulsified in CFA (about 10 μL into each of the front footpads and 40 μL into each of the hind footpads). Animals were immunized on Day 0. After injection, animals were placed back in their cages and housed ≤6 animals per cage.
Immunized animals were sacrificed by cervical dislocation on Day 10 following immunization. […] After centrifugation at about 200×g for 10 minutes at 4° C., the cell pellet was re-suspended in 40 mL of DCCM-1 medium for cell counting. A Trypan blue exclusion method was used to determine the cell density of viable cells in the suspension. After cell counting, the LN cells were suspended in enriched DCCM-1 medium at density of 7.5×10^6 cells/mL. LN cells (0.12 mL) were plated into each well of 96-well tissue culture plates.
Dilutions of GA (Mylan GMA) were prepared using enriched DCCM-1 medium as the diluent. GA dilutions (0.12 mL) were added in the assigned wells of 96-well tissue culture plates. The same volume of LN cells (0.12 mL) isolated from immunized animals was added to the assigned wells. A positive control and a negative control were always performed in the same assay by treating LN cells with 2.5 μg/mL ConA and 10 μg/mL MBP, respectively. The LN cells with mock stimulation protocols (enriched DCCM-1 medium) were used to monitor the background mRNA level of a cytokine. The plates were incubated at 37° C. in a humidified 5% CO2 incubator for 6 hr.
At the end of incubation time, culture medium from stimulated cells was removed by aspiration and the cells were lysed using Qiagen or Promega lysis buffer. The lysate was transferred to an RNeasy Mini column (Qiagen) or wells of the SV 96 Binding Plate (Promega) for RNA isolation and cDNA synthesis. All tested samples were run in triplicate.
The SV 96 Total RNA Isolation System (Promega; Cat. No. Z3505) was used for total RNA isolation. Assay procedures were carried out according to each manufacturer's protocol. RNA samples were stored at −70° C. until use. […] The assay procedure was carried out according to the manufacturer's protocol.
The plate was centrifuged at 2000 rpm for 2 minutes at 4° C. to spin down the contents and eliminate air bubbles. Samples were prepared and run in a 96-well plate using a Life Technologies Real-Time PCR system (previously Applied Biosystems; Model No. 7500) according to the manufacturer's recommendation. The mix for the reference gene was prepared in the same way using the reference gene primer.
A relative quantitation method was used to analyze changes in mIL-2, mIL-4, mIL-5, mIL-10, mIL-13, mIFN-γ and TNF-α expression in GA treated samples relative to the untreated control (Enriched DCCM-1 treated) samples using the following program:
Levels of mouse cytokine amplicons were normalized to an internal probe level (GAPDH) from the same samples. The following equations were used to calculate the relative increase in response to GA stimulation compared to the control sample (Enriched DCCM1 sample): […]

[3] = test system: IL-2 secreted by LN cells; assay: IL-2 secretion by GA-stimulated LN cells, MSD 9-plex ELISA (Example II); format: cell-based, mouse; conditions: 21 hr
Protocol: as §1

[4] = test system: IL-1b secreted by LN cells; assay: IL-1b secretion by GA-stimulated LN cells, MSD 9-plex ELISA (Example II); format: cell-based, mouse; conditions: 21 hr
Protocol: as §1

[5] = BALB/cByJ, immunized GA Intraplantar
[6] = BALB/cByJ, immunized Mannitol Intraplantar
[7] = C57BL10J, immunized Mannitol Intraplantar
[8] = CD-1, immunized GA Intraplantar
[9] = CD-1, immunized Mannitol Intraplantar
[10] = C57BL10J, immunized GA Intraplantar

| Molecule | KC secretion response ratio (treated cell medium to control DCCM1 medium) [1, 5] | KC secretion response ratio (treated cell medium to control DCCM1 medium) [1, 6] | KC secretion response ratio (treated cell medium to control DCCM1 medium) [1, 7] | KC secretion response ratio (treated cell medium to control DCCM1 medium) [1, 8] | KC secretion response ratio (treated cell medium to control DCCM1 medium) [1, 9] | IL-2 secretion response ratio (treated cell medium to control DCCM1 medium) [3, 5] | IL-2 secretion response ratio (treated cell medium to control DCCM1 medium) [3, 6] | IL-2 secretion response ratio (treated cell medium to control DCCM1 medium) [3, 7] | IL-2 secretion response ratio (treated cell medium to control DCCM1 medium) [3, 8] | IL-2 secretion response ratio (treated cell medium to control DCCM1 medium) [3, 9] | IL-1b secretion response ratio (treated cell medium to control DCCM1 medium) [4, 6] | IL-1b secretion response ratio (treated cell medium to control DCCM1 medium) [4, 10] | IL-1b secretion response ratio (treated cell medium to control DCCM1 medium) [4, 7] | IL-1b secretion response ratio (treated cell medium to control DCCM1 medium) [4, 8] | IL-1b secretion response ratio (treated cell medium to control DCCM1 medium) [4, 9] | also measured |
| --- | --- | --- | --- | --- | --- | --- | --- | --- | --- | --- | --- | --- | --- | --- | --- | --- |
| Concanavalin A [ConA, reference compound] | 1.52 | 1.00 | 1.34 | 1.56 | 2.55 | 229.32 | 281.66 | 28.71 | 85.01 | 68.22 | 7.83 | 2.21 | 1.40 | 8.50 | 3.37 | TNF-α mRNA Fold Change ([2]; Experiment 1, 2.5 μg/mL): 1.9 fold; TNF-α mRNA Fold Change ([2]; Experiment 2, 2.5 μg/mL): 0.8 fold; TNF-α mRNA Fold Change ([2]; Experiment 3, 2.5 μg/mL): 1.6 fold |
| B1 | 1.04 | 0.96 | 1.12 | 1.05 | 1.09 | 0.97 | 0.97 | 0.98 | 0.98 | 1.28 | 0.87 | 0.99 | 0.92 | 1.37 | 1.20 | TNF-α mRNA Fold Change ([2]; Experiment 1, 10 μg/mL): 1.0 fold; TNF-α mRNA Fold Change ([2]; Experiment 2, 10 μg/mL): 1.1 fold; TNF-α mRNA Fold Change ([2]; Experiment 3, 10 μg/mL): 1.1 fold; TNF-α mRNA expression level in response to MBP treatment ([2]; SJL/J, MBP 10 μg/mL, all PCR runs): ≤ 2 fold |
